Residue numbers refer to the chain shown, from its start.
T1: human FAPα (Fibroblast activation protein alpha), cell surface expressed (human, UniProt Q12884 1-760)
T1 construct: Endogenous on human lung fibroblasts and CAFs
T1 sequence: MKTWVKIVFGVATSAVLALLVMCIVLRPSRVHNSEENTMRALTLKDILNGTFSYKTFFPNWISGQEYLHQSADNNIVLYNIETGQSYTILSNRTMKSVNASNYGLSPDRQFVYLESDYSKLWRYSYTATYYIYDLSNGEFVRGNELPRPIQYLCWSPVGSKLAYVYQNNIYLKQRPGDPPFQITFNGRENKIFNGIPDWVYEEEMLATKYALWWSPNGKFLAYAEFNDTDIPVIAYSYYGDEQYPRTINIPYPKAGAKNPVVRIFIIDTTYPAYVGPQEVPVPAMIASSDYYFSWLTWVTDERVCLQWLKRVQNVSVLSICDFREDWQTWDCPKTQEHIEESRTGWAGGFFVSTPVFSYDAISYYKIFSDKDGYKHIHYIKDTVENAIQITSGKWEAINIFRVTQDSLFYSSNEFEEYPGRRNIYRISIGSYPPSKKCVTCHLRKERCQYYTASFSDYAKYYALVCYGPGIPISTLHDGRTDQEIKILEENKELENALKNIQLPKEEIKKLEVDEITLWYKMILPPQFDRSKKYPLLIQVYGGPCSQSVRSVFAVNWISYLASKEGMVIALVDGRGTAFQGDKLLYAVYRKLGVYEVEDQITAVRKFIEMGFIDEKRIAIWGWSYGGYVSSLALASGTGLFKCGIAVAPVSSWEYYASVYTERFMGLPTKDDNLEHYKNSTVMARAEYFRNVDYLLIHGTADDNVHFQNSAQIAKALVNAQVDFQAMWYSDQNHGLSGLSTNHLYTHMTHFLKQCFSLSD

T2: human DR4 (Death Receptor 4), cell surface expressed on human tumor cell lines (human, UniProt O00220 24-468)
T2 construct: also called TNFRSF10A; TRAIL-R1
T2 sequence: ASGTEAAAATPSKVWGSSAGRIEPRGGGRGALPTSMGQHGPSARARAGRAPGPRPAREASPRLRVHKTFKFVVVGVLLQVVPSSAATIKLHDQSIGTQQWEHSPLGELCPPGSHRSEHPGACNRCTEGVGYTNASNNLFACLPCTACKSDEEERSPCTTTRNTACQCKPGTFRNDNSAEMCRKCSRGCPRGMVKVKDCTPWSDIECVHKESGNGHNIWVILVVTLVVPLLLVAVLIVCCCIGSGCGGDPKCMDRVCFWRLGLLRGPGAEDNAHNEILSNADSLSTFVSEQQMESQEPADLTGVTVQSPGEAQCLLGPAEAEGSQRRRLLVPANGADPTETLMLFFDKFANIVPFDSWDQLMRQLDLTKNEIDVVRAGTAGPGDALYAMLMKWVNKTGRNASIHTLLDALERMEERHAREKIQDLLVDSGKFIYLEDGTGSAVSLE

B1: BisG1-FAPα-FERL/DR4-FERR (bispecific antibody, human IgG1, kappa, lambda)
heavy 1: EVQLLESGGGLVQPGGSPRLSCEASGFTFSSYALSWVRQAPGKGLEWVSAISGSGGGRYYADSVKGRFTISRDNSKNTLFLQMNSLRAEDTAVYYCAKEGYSSSGTYWDHWGQGTLVTVSSASTKGPSVFPLAPSSKSTSGGTAALGCLVKDYFPEPVTVSWNSGALTSGVHTFPAVLQSSGLYSLSSVVTVPSSSLGTQTYICNVNHKPSNTKVDKRVEPKSCDKTHTCPPCPAPEFERGPSVFLFPPKPKDTLMISRTPEVTCVVVDVSHEDPEVKFNWYVDGVEVHNAKTKPREEQYNSTYRVVSVLTVLHQDWLNGKEYKCKVSNKALPAPIEKTISKAKGQPREPQVYTLPPSREEMTKNQVSLTCLVKGFYPSDIAVEWESNGQPENNYKTTPPVLDSDGSFLLYSKLTVDKSRWQQGNVFSCSVMHEALHNHYTQKSLSLSPG
light 1: AIQMTQSPSSVSASVGDRVTITCRASQGVSSWLAWYQQKPGRAPKLLIYVASTLQSGVPSRFSGSGSGTDFTLTINSLQPEDFATYYCQQANSFPPTFGQGTRLEMKRTVAAPSVFIFPPSDEQLKSGTASVVCLLNNFYPREAKVQWKVDNALQSGNSQESVTEQDSKDSTYSLSSTLTLSKADYEKHKVYACEVTHQGLSSPVTKSFNRGEC
heavy 2: QVQLQESGPGLVKPSGTLSLTCAVSGGSISSYSWWSWIRQPPGKGLEWIGELYHSGSTNYNPSLKSRVTISVDKSKNQFSLKLRSVTAADTAVYYCVRGVATIDYWGQGTLVTVSSASTKGPSVFPLAPSSKSTSGGTAALGCLVKDYFPEPVTVSWNSGALTSGVHTFPAVLQSSGLYSLSSVVTVPSSSLGTQTYICNVNHKPSNTKVDKRVEPKSCDKTHTCPPCPAPEFERGPSVFLFPPKPKDTLMISRTPEVTCVVVDVSHEDPEVKFNWYVDGVEVHNAKTKPREEQYNSTYRVVSVLTVLHQDWLNGKEYKCKVSNKALPAPIEKTISKAKGQPREPQVYTLPPSREEMTKNQVSLTCLVKGFYPSDIAVEWESNGQPENNYKTTPPVLDSDGSFFLYSRLTVDKSRWQQGNVFSCSVMHEALHNHYTQKSLSLSPG
light 2: QSALTQPPSASGSPGQSVTISCTGTSSDVGGYNFVSWYQQDPGKAPKLLIYEVTKRPSGVPDRFSGSKSGNTASLTVSGLQAEDEADYYCSSYAGSNNVMFGGGTKLTVLGQPKAAPSVTLFPPSSEELQANKATLVCLISDFYPGAVTVAWKADSSPVKAGVETTTPSKQSNNKYAASSYLSLTPEQWKSHRSYSCQVTHEGSTVEKTVAPTECS
notes: Human IgG1 bispecific made by controlled Fab-arm exchange of IgG1-FAPα-FERL and IgG1-DR4-FERR; monovalent for FAPα and for DR4; also called GEN1057
B2: BisG1-FAPα-FERL/b12-FERR (bispecific antibody, human IgG1, kappa)
heavy 1: B1 heavy 1
light 1: B1 light 1
heavy 2: QVQLVQSGAEVKKPGASVKVSCQASGYRFSNFVIHWVRQAPGQRFEWMGWINPYNGNKEFSAKFQDRVTFTADTSANTAYMELRSLRSADTAVYYCARVGPYSWDDSPQDNYYMDVWGKGTTVIVSSASTKGPSVFPLAPSSKSTSGGTAALGCLVKDYFPEPVTVSWNSGALTSGVHTFPAVLQSSGLYSLSSVVTVPSSSLGTQTYICNVNHKPSNTKVDKRVEPKSCDKTHTCPPCPAPEFERGPSVFLFPPKPKDTLMISRTPEVTCVVVDVSHEDPEVKFNWYVDGVEVHNAKTKPREEQYNSTYRVVSVLTVLHQDWLNGKEYKCKVSNKALPAPIEKTISKAKGQPREPQVYTLPPSREEMTKNQVSLTCLVKGFYPSDIAVEWESNGQPENNYKTTPPVLDSDGSFFLYSRLTVDKSRWQQGNVFSCSVMHEALHNHYTQKSLSLSPG
light 2: EIVLTQSPGTLSLSPGERATFSCRSSHSIRSRRVAWYQHKPGQAPRLVIHGVSNRASGISDRFSGSGSGTDFTLTITRVEPEDFALYYCQVYGASSYTFGQGTKLERKRTVAAPSVFIFPPSDEQLKSGTASVVCLLNNFYPREAKVQWKVDNALQSGNSQESVTEQDSKDSTYSLSSTLTLSKADYEKHKVYACEVTHQGLSSPVTKSFNRGEC
B3: BisG1-b12-FERL/DR4-FERR (bispecific antibody, human IgG1, kappa, lambda)
heavy 1: B2 heavy 2 with F415L, R419K
light 1: B2 light 2
heavy 2: B1 heavy 2
light 2: B1 light 2
notes: Fab-arm exchange of IgG1-b12-FERL and IgG1-DR4-FERR; also called bsIgG1-ctrl-FERLxDR4-FERR
B4: IgG1-DR4-FERR (antibody, V domains shown)
VH: QVQLQESGPGLVKPSGTLSLTCAVSGGSISSYSWWSWIRQPPGKGLEWIGELYHSGSTNYNPSLKSRVTISVDKSKNQFSLKLRSVTAADTAVYYCVRGVATIDYWGQGTLVTVSS
VL: QSALTQPPSASGSPGQSVTISCTGTSSDVGGYNFVSWYQQDPGKAPKLLIYEVTKRPSGVPDRFSGSKSGNTASLTVSGLQAEDEADYYCSSYAGSNNVMFGGGTKLTVLG
notes: Bivalent monoclonal IgG1 lambda

Legend:
[1] = molecular target: T1, human FAPα (Fibroblast activation …); assay: flow cytometry, CAFs, n = 3
Description: Binding of bispecific or monoclonal antibodies carrying the anti-FAPα arm derived from IgG1-FAPα-FERL (BisG1-FAPα-FERL/DR4-FERR, BisG1-FAPα-FERL/b12-FERR, and IgG1-FAPα-FERL) to cell surface expressed human FAPα was analyzed by flow cytometry using human lung fibroblasts and CAFs, which endogenously express FAPα. BisG1-b12-FERL/b12-FERR was used as negative control.
Human lung fibroblasts and CAFs (50,000 cells/well) were seeded in 96-Well round bottom plates (Greiner Bio-one, Cat #650101). Antibody dilutions were prepared using fluorescence-activated cell sorting (FACS) buffer, consisting of phosphate buffer saline (PBS, Lonza, Cat #BE17-517Q)+1% Bovine Serum Albumin (BSA, Roche, Cat #10735086001)+0.02% Sodium Azide (Bio-World, Cat #41920044-3). Plates were centrifuged, supernatant was removed, cells were resuspended in 50 μL of human Fc Block (BD, Cat #564220, diluted 1:100 in FACS buffer) and 50 μL of viability stain TO-PRO-3 Iodide (Thermo Fisher, Cat #T3605, diluted 1: 25,000 in FACS buffer), and incubated for 15 min at 4° C. Plates were washed three times with FACS buffer. […] Antibody binding to viable cells (TO-PRO-3 negative) was analyzed by flow cytometry on a FACSCelesta™ (BD biosciences) and data were processed using FlowJo_v10.8.1 (FlowJo LLC). Geomean fluorescence intensity, gMFI, was determined and visualized using GraphPad Prism.

[2] = molecular target: T2, human DR4 (Death Receptor 4), cell …; assay: flow cytometry, HCT-15 cells, average ± SEM
[3] = molecular target: T2, human DR4 (Death Receptor 4), cell …; assay: flow cytometry, MDA-MB-231 cells, n = 3

Binder | EC50 [1] | EC50 [2] | EC50 [3]
B1 | 0.211 µg/mL | 0.65 µg/mL | –
B2 | 0.218 µg/mL | – | –
B3 | – | 0.56 µg/mL | 0.92 µg/mL
B4 | – | – | 0.37 µg/mL
